Data: doi:10.1101/2021.01.21.427698 (bioRxiv, 2021)
Residue numbers refer to the chain shown, from its start.

B1: SEPT2-msfGFP human septin octamers containing SEPT9_i3 (complex)
chain 1: MSKQQPTQFINPETPGYVGFANLPNQVHRKSVKKGFEFTLMVVGESGLGKSTLINSLFLTDLYPERVIPGAAEKIERTVQIEASTVEIEERGVKLRLTVVDTPGYGDAINCRDCFKTIISYIDEQFERYLHDESGLNRRHIIDNRVHCCFYFISPFGHGLKPLDVAFMKAIHNKVNIVPVIAKADTLTLKERERLKKRILDEIEEHNIKIYHLPDAESDEDEDFKEQTRLLKASIPFSVVGSNQLIEAKGKKVRGRLYPWGVVEVENPEHNDFLKLRTMLITHMQDLQEVTQDLHYENFRSERLKRGGRKVENEDMNKDQILLEKEAELRRMQEMIARMQAQMQMQMQGGDGDGGALGHHV
chain 2: MAATDIARQVGEGCRTVPLAGHVGFDSLPDQLVNKSVSQGFCFNILCVGETGLGKSTLMDTLFNTKFEGEPATHTQPGVQLQSNTYDLQESNVRLKLTIVSTVGFGDQINKEDSYKPIVEFIDAQFEAYLQEELKIRRVLHTYHDSRIHVCLYFIAPTGHSLKSLDLVTMKKLDSKVNIIPIIAKADAISKSELTKFKIKITSELVSNGVQIYQFPTDDESVAEINGTMNAHLPFAVIGSTEELKIGNKMMRARQYPWGTVQVENEAHCDFVKLREMLIRVNMEDLREQTHTRHYELYRRCKLEEMGFKDTDPDSKPFSLQETYEAKRNEFLGELQKKEEEMRQMFVQRVKEKEAELKEAEKELHEKFDRLKKLHQDEKKKLEDKKKSLDDEVNAFKQRKTAAELLQSQGSQAGGSQTLKRDKEKKN
chain 3: MSVSARSAAAEERSVNSSTMVAQQKNLEGYVGFANLPNQVYRKSVKRGFEFTLMVVGESGLGKSTLINSLFLTDLYSPEYPGPSHRIKKTVQVEQSKVLIKEGGVQLLLTIVDTPGFGDAVDNSNCWQPVIDYIDSKFEDYLNAESRVNRRQMPDNRVQCCLYFIAPSGHGLKPLDIEFMKRLHEKVNIIPLIAKADTLTPEECQQFKKQIMKEIQEHKIKIYEFPETDDEEENKLVKKIKDRLPLAVVGSNTIIEVNGKRVRGRQYPWGVAEVENGEHCDFTILRNMLIRTHMQDLKDVTNNVHYENYRSRKLAAVTYNGVDNNKNKGQLTKSPLAQMEEERREHVAKMKKMEMEMEQVFEMKVKEKVQKLKDSEAELQRRHEQMKKNLEAQHKELEEKRRQFEDEKANWEAQQRILEQQNSSRTLEKNKKKGKIF
chain 4: MERDRISALKRSFEVEEVETPNSTPPRRVQTPLLRATVASSTQKFQDLGVKNSEPSARHVDSLSQRSPKASLRRVELSGPKAAEPVSRRTELSIDISSKQVENAGAIGPSRFGLKRAEVLGHKTPEPAPRRTEITIVKPQESAHRRMEPPASKVPEVPTAPATDAAPKRVEIQMPKPAEAPTAPSPAQTLENSEPAPVSQLQSRLEPKPQPPVAEATPRSQEATEAAPSCVGDMADTPRDAGLKQAPASRNEKAPVDFGYVGIDSILEQMRRKAMKQGFEFNIMVVGQSGLGKSTLINTLFKSKISRKSVQPTSEERIPKTIEIKSITHDIEEKGVRMKLTVIDTPGFGDHINNENCWQPIMKFINDQYEKYLQEEVNINRKKRIPDTRVHCCLYFIPATGHSLRPLDIEFMKRLSKVVNIVPVIAKADTLTLEERVHFKQRITADLLSNGIDVYPQKEFDEDSEDRLVNEKFREMIPFAVVGSDHEYQVNGKRILGRKTKWGTIEVENTTHCEFAYLRDLLIRTHMQNIKDITSSIHFEAYRVKRLNEGSSAMANGVEEKEPEAPEM
B2: recombinant human septin octamers containing SEPT9_i1 (nonfluorescent) (complex)
chain 1: B1 chain 1
chain 2: B1 chain 2
chain 3: B1 chain 3
chain 4: MKKSYSGGTRTSSGRLRRLGDSSGPALKRSFEVEEVETPNSTPPRRVQTPLLRATVASSTQKFQDLGVKNSEPSARHVDSLSQRSPKASLRRVELSGPKAAEPVSRRTELSIDISSKQVENAGAIGPSRFGLKRAEVLGHKTPEPAPRRTEITIVKPQESAHRRMEPPASKVPEVPTAPATDAAPKRVEIQMPKPAEAPTAPSPAQTLENSEPAPVSQLQSRLEPKPQPPVAEATPRSQEATEAAPSCVGDMADTPRDAGLKQAPASRNEKAPVDFGYVGIDSILEQMRRKAMKQGFEFNIMVVGQSGLGKSTLINTLFKSKISRKSVQPTSEERIPKTIEIKSITHDIEEKGVRMKLTVIDTPGFGDHINNENCWQPIMKFINDQYEKYLQEEVNINRKKRIPDTRVHCCLYFIPATGHSLRPLDIEFMKRLSKVVNIVPVIAKADTLTLEERVHFKQRITADLLSNGIDVYPQKEFDEDSEDRLVNEKFREMIPFAVVGSDHEYQVNGKRILGRKTKWGTIEVENTTHCEFAYLRDLLIRTHMQNIKDITSSIHFEAYRVKRLNEGSSAMANGVEEKEPEAPEM
B3: recombinant human septin octamers containing SEPT9_i3 (nonfluorescent) (complex)
chain 1: B1 chain 1
chain 2: B1 chain 2
chain 3: B1 chain 3
chain 4: B1 chain 4
B4: recombinant mammalian SEPT2-, SEPT6-, SEPT7-containing hexamers (mouse SEPT2, human SEPT6, human SEPT7ΔN19) (complex)
chain 1: B1 chain 1 with V67I, N207S, G352S, G354S, H359Q
chain 2: B1 chain 2
chain 3: MVAQQKNLEGYVGFANLPNQVYRKSVKRGFEFTLMVVGESGLGKSTLINSLFLTDLYSPEYPGPSHRIKKTVQVEQSKVLIKEGGVQLLLTIVDTPGFGDAVDNSNCWQPVIDYIDSKFEDYLNAESRVNRRQMPDNRVQCCLYFIAPSGHGLKPLDIEFMKRLHEKVNIIPLIAKADTLTPEECQQFKKQIMKEIQEHKIKIYEFPETDDEEENKLVKKIKDRLPLAVVGSNTIIEVNGKRVRGRQYPWGVAEVENGEHCDFTILRNMLIRTHMQDLKDVTNNVHYENYRSRKLAAVTYNGVDNNKNKGQLTKSPLAQMEEERREHVAKMKKMEMEMEQVFEMKVKEKVQKLKDSEAELQRRHEQMKKNLEAQHKELEEKRRQFEDEKANWEAQQRILEQQNSSRTLEKNKKKGKIF
B5: recombinant mammalian SEPT9_i3-containing octamers (mouse SEPT2, human SEPT6, human SEPT7ΔN19, human SEPT9_i3) (complex)
chain 1: B1 chain 1 with V67I, N207S, G352S, G354S, H359Q
chain 2: B1 chain 2
chain 3: B4 chain 3
chain 4: B1 chain 4

What was measured:
[1] = target: the molecule itself; assay: spinning disk fluorescence microscopy of septin polymerisation
[2] = target: the molecule itself; assay: negative-stain electron microscopy of septin polymerisation

| Protein | binding result [1] | binding result [2] |
| --- | --- | --- |
| B1 | binds | – |
| B2 | – | binds |
| B3 | – | binds |
| B4 | – | binds |
| B5 | – | binds |
